We go through one molecule from patent US20250320303A1 (SHENGHE CHINA BIOPHARMACEUTICAL, published 2025).

As usually defined, the IC50 is the point on the concentration scale where inhibition reaches its midpoint. By Kd is commonly meant the free concentration of one partner at which half of the binding sites on the other are occupied at equilibrium, for simple one-to-one binding. The term koff denotes the rate constant with which the complex falls apart. One may read the kon as the rate constant with which the complex forms. By EC50 is commonly meant the midpoint of the concentration-response curve. High values mean a less potent agent, low ones a more potent agent.

The target of assay [1] is T1, Recombinant human TNFR2-His Tag protein (Sino, Cat: 10417-H08H) (human, UniProt P20333 23-257).
T1 construct: Bought protein; also called hTNFR2; not shown: His tag
T1 sequence (looked up): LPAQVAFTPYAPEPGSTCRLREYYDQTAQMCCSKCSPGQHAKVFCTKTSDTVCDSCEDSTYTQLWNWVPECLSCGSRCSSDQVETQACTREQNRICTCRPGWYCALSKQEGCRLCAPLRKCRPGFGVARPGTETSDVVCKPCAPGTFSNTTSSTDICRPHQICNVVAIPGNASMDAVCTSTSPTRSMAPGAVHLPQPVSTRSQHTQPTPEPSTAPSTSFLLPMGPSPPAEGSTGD
In words: competition ELISA: captured TNFR2-His, antibody titrated against 1.6 nM biotin-TNF-alpha (competitor). The protocol:
Anti-His antibody (1 μg/mL) was coated at 50 μL/well, incubated at 4° C. overnight and washed 3 times with PBST. 2% BSA was added at 200 μL/well, incubated at room temperature for 1 hour and washed 3 times with PBST. 0.25 μg/mL (containing 2% BSA) of recombinant human TNFR2-His Tag protein (Sino; Cat: 10417-H08H) was added at 50 μL/well, incubated for 1 hour at room temperature and washed 3 times with PBST. Primary antibody (isotype control or candidate antibody) was added at a concentration of 100 nM and diluted 4-fold in 11 gradients with a solution containing 1.6 nM recombinant human TNF-alpha-Biotin protein (Sino; Cat: 10602-HANE-B) and 2% BSA, incubated for 2 hours at room temperature and washed 3 times with PBST. Secondary antibody SA-HRP (1:5000) containing 2% BSA was added at 50 μL/well, incubated for 1 hour at room temperature and washed 3 times with PBST.
After washing, TMB developed the color for 10 min, and the OD450 reading was determined by the enzyme labeler after the display was terminated. Based on the experimental results, it was judged whether the candidate antibodies had ligand blocking activity. As shown in Table 2 and FIG. 2, 2 sequences show better ligand blocking ability than BMK2; 6 sequences show equivalent ligand blocking ability to BMK2.
On the technique in general: In an ELISA, binding on a coated surface is turned into a signal by an enzyme label.

The target of assay [2] is T2, human TNFR2 (tumor necrosis factor receptor 2), on cells (human, UniProt P20333 23-461).
T2 sequence (looked up): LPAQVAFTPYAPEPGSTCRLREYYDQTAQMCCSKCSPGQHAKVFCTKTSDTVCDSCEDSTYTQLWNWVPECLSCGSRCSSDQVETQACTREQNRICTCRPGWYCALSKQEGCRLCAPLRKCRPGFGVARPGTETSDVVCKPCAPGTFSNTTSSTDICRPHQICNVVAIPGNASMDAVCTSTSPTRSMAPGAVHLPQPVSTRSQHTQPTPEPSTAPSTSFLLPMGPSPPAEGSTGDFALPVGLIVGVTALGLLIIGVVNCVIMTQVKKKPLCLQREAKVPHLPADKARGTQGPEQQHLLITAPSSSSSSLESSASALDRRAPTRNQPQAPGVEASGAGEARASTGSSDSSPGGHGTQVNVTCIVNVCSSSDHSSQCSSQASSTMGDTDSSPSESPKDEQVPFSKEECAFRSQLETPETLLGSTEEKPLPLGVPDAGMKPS
In words: cell-based or functional assay.

Assay [3] concerns the target T1, Recombinant human TNFR2-His Tag protein …. Kind of assay: SPR (Biacore 8K), antibody captured by anti-rat Fc, 10 nM TNFR2-His as analyte, 1:1 model. The protocol:
The CM5 sensor chip was activated at a flow rate of […] for 420 s. The channel was then injected with 30 μg/mL of anti-rat Fc IgG in 10 mM NaAc (pH 4.5) at a flow rate of 10 μL/min. The chip was inactivated with 1 M ethanolamine-hydrochloric acid (GE) for 420 s at a flow rate of 10 μL/min.
Candidate antibodies in running buffer 1×HBS-EP+(10 mM HEPES, 150 mM NaCl, 3 mM EDTA, 0.05% Tween 20, pH 7.4) were captured onto Fc2 with anti-rat Fc IgG at a flow rate of 10 μL/min. The 10 nM recombinant human TNFR2-His Tag protein (Sino; Cat: 10417-H08H) and running buffer were sequentially injected into Fc1-Fc2 at a flow rate of […], bound for 180 s, and then dissociated for 3600 s. 10 mM glycine (pH 1.5) was injected as regeneration buffer after each dissociation.
Result plots for the reference channel Fc1 and the buffer channel were subtracted from the test result plots. The experimental data fit the 1:1 binding model. The molecular weight of 26.6 kDa was used to calculate the molar concentration of recombinant human TNFR2-His Tag protein.

Assay [4] deals with T2, human TNFR2 (tumor necrosis factor …). In words: flow cytometry on CHOK1-hTNFR2 cells. The protocol:
CHOK1-hTNFR2 cells were plated at 1×10⁵/well (containing 1% BSA). 100 μL of isotype control and candidate antibodies were added at a concentration of 100 nm and 4-fold diluted in 11 gradients (containing 1% BSA). Cells were incubated at 4° C. for 1 hour and then washed twice with excess FACS buffer. Cells were resuspended in 100 μL of FACS buffer, and 100 μL of goat anti-rat IgG Fc-AF647 (1:500) containing 1% BSA was added, incubated at 4° C. without light for 30 minutes and washed twice with excess FACS buffer. Cells were fixed in fixation buffer and subsequently analyzed by flow cytometry. The FACS method screened for candidate antibodies with high specific binding activity to human TNFR2.
(In general: Flow cytometry measures light scatter and fluorescence of single cells or particles in a stream.)

B1: Antibody 04 (antibody, V domains shown)
VH: EVHLQQSGPEVGRPGSSVKISCKASGYTFTDYIIHWVKQSPGQGLEWMGWIDPDYGNTDYADKFKKKATLTADASSNTAFIHLSRLTSEDTATYFCARDDGSPLVMDAWGQGTSVTVSS
VL: NIQLTQSPSLLSASVGDRVTLSCNGSQNIDNYLAWFQQKLGEAPKLLIYSTYSLQTGIPSRFSGSRSGTDYTLTISSLQPEDVATYFCFQYNNGYMFGAGTKLELK
notes: Rat monoclonal antibody from a hybridoma
For the molecule B1, in assay [1], the IC50 came out at 0.584 nM and the “Inhibition rate (%)” value turned out to be 96%. In assay [2], the “IC50(nM), Treg cell count after 72 h with IL2 and TNF-alpha” value is 0.88 nM; the “Treg cell changes relative to IL-2(%)” value is 100%. In assay [3], the Kd was less than 0.00758 nM, the koff is less than 1e-05 s⁻¹ and the kon came out at 1.32e+06 M⁻¹ s⁻¹. For the same molecule, in assay [4], the EC50 came to 0.025 nM and the “Maximum average fluorescence value” stood at 1320.
